Two molecules from publication PMC9313131 (2022) can be followed below.

B1: CDC37 (cell division cycle 37), wild type, full-length (natural protein)
chain: MVDYSVWDHIEVSDDEDETHPNIDTASLFRWRHQARVERMEQFQKEKEELDRGCRECKRKVAECQRKLKELEVAEGGKAELERLQAEAQQLRKEERSWEQKLEEMRKKEKSMPWNVDTLSKDGFSKSMVNTKPEKTEEDSEEVREQKHKTFVEKYEKQIKHFGMLRRWDDSQKYLSDNVHLVCEETANYLVIWCIDLEVEEKCALMEQVAHQTIVMQFILELAKSLKVDPRACFRQFFTKIKTADRQYMEGFNDELEAFKERVRGRAKLRIEKAMKEYEEEERKKRLGPGGLDPVEVYESLPEELQKCFDVKDVQMLQDAISKMDPTDAKYHMQRCIDSGLWVPNSKASEAKEGEEAGPGDPLLEAVPKTGDEKDVSV

For experiment [1], the target named is sBRAF V600E (solubilized BRAF kinase domain, residues 423-723, V600E) (human, UniProt P15056 423-723, V600E). The experiment can be described thus: ITC. Background: ITC needs no label: the signal is the heat of the interaction.
Experiment [2] has as its target B1. The experiment can be described thus: ITC.

Take B1: the Ka in experiment [1] is 2.44e+06 M⁻¹.

B2: sBRAF, solubilized version of BRAF kinase domain (residues 423-723), V600 background (domain or fragment)
chain: QRERKSSSSSEDRNRMKTLGRRDSSDDWEIPDGQITVGQRIGSGSFGTVYKGKWHGDVAVKMLNVTAPTPQQLQAFKNEVGVLRKTRHVNILLFMGYSTKPQLAIVTQWCEGSSLYHHLHASETKFEMKKLIDIARQTARGMDYLHAKSIIHRDLKSNNIFLHEDNTVKIGDFGLATVKSRWSGSHQFEQLSGSILWMAPEVIRMQDSNPYSFQSDVYAFGIVLYELMTGQLPYSNINNRDQIIEMVGRGSLSPDLSKVRSNCPKRMKRLMAECLKKKRDERPSFPRILAEIEELARELSG
Molecule B2 yielded a Ka in experiment [2] of 965000 M⁻¹.
